Like-named read-outs stand apart in the source and are kept apart here.
How the values were obtained:
[1] = molecular target: PahZ2_(KT-1), poly(aspartic acid) hydrolase-2 of Sphingomonas sp. KT-1 (Sphingomonas sp. KT-1); assay: SEC
[2] = molecular target: PahZ2_(KT-1), poly(aspartic acid) hydrolase-2 of Sphingomonas sp. KT-1 (Sphingomonas sp. KT-1); assay: SEC; remark: listed apart in the source

PahZ2_(KT-1), poly(aspartic acid) hydrolase-2 of Sphingomonas sp. KT-1 (enzyme)
stoichiometry N [1]: 2.4 | stoichiometry N [2]: 1.94
